Measurements as given in the supplement of paper PMC9170038.

tested on: MS2 coat protein; test: apparent KD of MS2 coat protein; higher = weaker reporter binding; conditions: Eterna round: R107; input ligand: theophylline 20 uM
Experimental: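 RNA-MaP round R107: designed RNA switches with theophylline, tryptophan, arginine or FMN aptamers are transcribed on-chip within common flanks. They are titrated with SNAP-549-labelled MS2 coat protein in RNA-MaP buffer (100 mM Tris pH 7.5, 80 mM KCl, 4 mM MgCl2), without ligand or with the indicated ligand. Median apparent KD per design.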

Sequence | apparent KD of MS2 coat protein
AUCGCACCUGGUGAUACCAGCGUUUGCUCGUGACAUGAGGAUCACCCAUGUGGCCAGUGAUGCCCUUGGCAGCAUGGUCGGUGCA [Same State - Theophylline B (Freestyle 26)] | 376 nM
ACCUCAUGUAGAAGGAGCGUCAGAAGCUACAGACAUGAGGAUCACCCAUGUUAGUUGAUCUGACAGGUAGGUCGCUACAGCAGGA [#23 Same State - Arginine B] | 43.9 nM
GGACUAACUGGAAGGAGCGACGCGCAGAAACUGCAAUUUCCUCCACACGAGGAUCACCCGUGUCAGGUAGGUCGCCAGUUAGUCG [ArgBX 29] | 24.7 nM
GGUGGCGUGACGGAUACCAGCCACCACCGCAAGGCCACAUGAGGAUCACCCAUGUUGGGUGGCCCUUGGCAGCUGUCGUGCGGCG [#1 Same State - Theophylline B Attempt #20 (HarryS)] | 324 nM
UUAUUUAUAAUGGAUACCAGUGCUGUGGCCCGGCAUCCUGACAUGAGGAUCACCCAUGUGUACCCUUGGCAGCUGUUAUGGGUUU [XTheo B #20] | 28.3 nM
GGGACAUGAGGAUCACCCAUGUACCGGUCCCGAGGACCGGUACGGCCGCCACUCGAUGACCUCAUAGUCUGCUGGAGCAGCAGAC [Usesedarin] | 108 nM
ACAUGAGGAUCACCCAUGUAUUACCGGGAAGGAGCGGCCGCAAGGCCAGGUAGGUCGCUCGGUGUCGUGCUGUAAAGCACGACAA [#1 Same State - Arginine A Attempt #29 (HarryS)] | 16.7 nM
GCUAGGUCUACGGCCGCCACUAGACGUGGGUAAGACAUGAGGAUCACCCAUGUACUACGGGCGAAUAGGACCGGGUAGACCUAGC [SSTB NP+V+V2 #14 Same Structure] | 499 nM
AGUGCUACGUGUAAUCAAAGAGAACCAGAUACCAGAUUAGCAUACAUCCCUUGGCAGCUGCAUACAUGAGGAUCACCCAUGUCAG [theeternabot_exclusion_MS2_Theo_A_31] | 38.4 nM
GGCACCGGGCGAAGGAGCGUGAAGACAUGAGGAUCACCCAUGUAGAGGCCCGGACAGGGUUCGCAGGUAGGUCGCGCGCGGUGCC [#1 Same State - Arginine B Attempt #8 (HarryS)] | 22.3 nM
AACAUACAAUAUUAGGUGGAUAUAAGGCGGCGAGGACCGGUACGGCCGCCACUCGCGUACAUGAGGAUCACCCAUGUCUGAAACU [Same State - Tryptophan A (Freestyle 4)] | 26.8 nM
ACUGUCUUUGAUGAUAUGUAUGGGUCAUUGCGAGGACCGGUACGGCCGCCACUCGGUCCGCCACAUGAGGAUCACCCAUGUCUAU [theeternabot_exclusion_MS2_Trp_A_37] | 94.6 nM
UUAAUGGAGCUUUUAUUUACGAUUUCUGAUACCAGUGUUUCAUUUCACCCUUGGCAGCAGUGACAUGAGGAUCACCCAUGUAAUA [JR_Nu_SSTheophyA_Sub021] | 33.8 nM
CUAUGCAGGUCGGCCGCCACUACACACAUGAGGAUCACCCAUGUAGUUACUGGGUGAAGUGGCAGUAGGACCGGGACCUGCACAU [Brourdmod15] | 578 nM

same assay, conditions: Eterna round: R107; input ligand: theophylline 2 mM

Sequence | apparent KD of MS2 coat protein
AUAACAUGAGGAUCACCCAUGUAAGCUGAAGGAGCGCUGGAAACAGCAGGUAGGUCGCAGCUACCUACCACCUCAUGAGGUAGGU [(M1)-(M2)-(Arg1)-(Arg2)-(A)'-(M)'-(A)''_Design6] | 25.9 nM
UGUAUGUGAUCUGAUACCAGCUUUGAUAACCUGAGGAUCACCCUGGUAAAGGCGAAAGCCGGCCCUUGGCAGCAGAUCGCAUACU | 24.6 nM
AGAGUCAGACAAAAGUCUGGCUCAGCCGAAGGAGCGUCCGAAAGGACAGGUAGGUCGCGGUUGCAUGAGGAUCACCCAUGUUCCU [ArgAS 30 #OpenEnded #AlternativeMS2] | 528 nM
UAUCCACAUGAGGAUCACCCAUGUAGGGAAGGAGCGGUGAAUGCACCAGGUAGGUCGCCUUGCUGAGGACAGCCGGUGGAUUCGU [Exclusion - Arginine A (Freestyle 26)] | 23 nM
CGGUCGGUCGGUCGGUGAUUAUGGGAUGAAGGAGCGUGGGAAGCUACAGGUAGGUCGCAUCCGAAACAUGAGGAUCACCCAUGUU [#21 Same State - Arginine A] | 21.3 nM
ACAUGAGGAUCACCCAUGUACAUAAGGGAAGGAGCGCGGUGAAACGCAGGUAGGUCGCCCAUAAUAACAAACAUUAAAUUCAUGU [LeftA2] | 17.9 nM
GGGCCUACCUGAAGGAGCGACAUGAGGAUCACCCAUGUCUCCCGUUAUGGGAGUUCUUUAGGUCAGGUAGGUCGCAGGUAGGGCC [#1 Exclusion - Arginine B Attempt #4 (Inspired by Omei)] | 14.1 nM
ACCUCAUGUAGAAGGAGCGUCAGAAGCUACAGACAUGAGGAUCACCCAUGUUAGUUGAUCUGACAGGUAGGUCGCUACAGCAGGA [#23 Same State - Arginine B] | 35.6 nM
GGACUAACUGGAAGGAGCGACGCGCAGAAACUGCAAUUUCCUCCACACGAGGAUCACCCGUGUCAGGUAGGUCGCCAGUUAGUCG [ArgBX 29] | 21.1 nM
GGUGGCGUGACGGAUACCAGCCACCACCGCAAGGCCACAUGAGGAUCACCCAUGUUGGGUGGCCCUUGGCAGCUGUCGUGCGGCG [#1 Same State - Theophylline B Attempt #20 (HarryS)] | 431 nM
GGGACAUGAGGAUCACCCAUGUACCGGUCCCGAGGACCGGUACGGCCGCCACUCGAUGACCUCAUAGUCUGCUGGAGCAGCAGAC [Usesedarin] | 84.3 nM
ACAUGAGGAUCACCCAUGUAUUACCGGGAAGGAGCGGCCGCAAGGCCAGGUAGGUCGCUCGGUGUCGUGCUGUAAAGCACGACAA [#1 Same State - Arginine A Attempt #29 (HarryS)] | 11.5 nM
GCUAGGUCUACGGCCGCCACUAGACGUGGGUAAGACAUGAGGAUCACCCAUGUACUACGGGCGAAUAGGACCGGGUAGACCUAGC [SSTB NP+V+V2 #14 Same Structure] | 668 nM
GGCACCGGGCGAAGGAGCGUGAAGACAUGAGGAUCACCCAUGUAGAGGCCCGGACAGGGUUCGCAGGUAGGUCGCGCGCGGUGCC [#1 Same State - Arginine B Attempt #8 (HarryS)] | 16.8 nM
AACAUACAAUAUUAGGUGGAUAUAAGGCGGCGAGGACCGGUACGGCCGCCACUCGCGUACAUGAGGAUCACCCAUGUCUGAAACU [Same State - Tryptophan A (Freestyle 4)] | 24.3 nM
ACUGUCUUUGAUGAUAUGUAUGGGUCAUUGCGAGGACCGGUACGGCCGCCACUCGGUCCGCCACAUGAGGAUCACCCAUGUCUAU [theeternabot_exclusion_MS2_Trp_A_37] | 195 nM
CUAUGCAGGUCGGCCGCCACUACACACAUGAGGAUCACCCAUGUAGUUACUGGGUGAAGUGGCAGUAGGACCGGGACCUGCACAU [Brourdmod15] | 659 nM

same assay, conditions: Eterna round: R107; input ligand: tryptophan 2.4 mM

Sequence | apparent KD of MS2 coat protein
AUAACAUGAGGAUCACCCAUGUAAGCUGAAGGAGCGCUGGAAACAGCAGGUAGGUCGCAGCUACCUACCACCUCAUGAGGUAGGU [(M1)-(M2)-(Arg1)-(Arg2)-(A)'-(M)'-(A)''_Design6] | 19 nM
UGUAUGUGAUCUGAUACCAGCUUUGAUAACCUGAGGAUCACCCUGGUAAAGGCGAAAGCCGGCCCUUGGCAGCAGAUCGCAUACU | 59.7 nM
AUGGAACAUGAGGAUCACCCAUGUGAUGAUACCAGAUUAACGCUUAUCCCUUGGCAGCAUGUCCGCCCUCAACCUGUGGCGUAUU [theeternabot_sameState_MS2_Theo_A_50] | 20.3 nM
UAUUUUGGGCGCGAGCCCGGGAUAAUUGAUACCAGUGAAGAAGAGCGCCCUUGGCAGCGAAUCCUAACAUGAGGAUCACCCAUGU [5.Q] | 45.1 nM
AGAGUCAGACAAAAGUCUGGCUCAGCCGAAGGAGCGUCCGAAAGGACAGGUAGGUCGCGGUUGCAUGAGGAUCACCCAUGUUCCU [ArgAS 30 #OpenEnded #AlternativeMS2] | 324 nM
UGACAUUGCUCAGAUACCAGACAUGAGGAUCACCCAUGUGCCAAACGUACAAUAAUAAAUGUCCCUUGGCAGCUGAGCAAUGUCU [TheoBX 14 #MS2Left #Theo2] | 11.6 nM
UAUCCACAUGAGGAUCACCCAUGUAGGGAAGGAGCGGUGAAUGCACCAGGUAGGUCGCCUUGCUGAGGACAGCCGGUGGAUUCGU [Exclusion - Arginine A (Freestyle 26)] | 16 nM
AGCGAUAUGCAUGAUACCAGCUACAUGAGGAUCACCCAUGUACGUCAGUAAUGACUGUGUAGCCCUUGGCAGCAUAGAGCAUGUA [Exclusion - Theophylline B (Freestyle 13)] | 22.7 nM
CGGUCGGUCGGUCGGUGAUUAUGGGAUGAAGGAGCGUGGGAAGCUACAGGUAGGUCGCAUCCGAAACAUGAGGAUCACCCAUGUU [#21 Same State - Arginine A] | 18.5 nM
ACAUGAGGAUCACCCAUGUACAUAAGGGAAGGAGCGCGGUGAAACGCAGGUAGGUCGCCCAUAAUAACAAACAUUAAAUUCAUGU [LeftA2] | 16.6 nM
GGGCCUACCUGAAGGAGCGACAUGAGGAUCACCCAUGUCUCCCGUUAUGGGAGUUCUUUAGGUCAGGUAGGUCGCAGGUAGGGCC [#1 Exclusion - Arginine B Attempt #4 (Inspired by Omei)] | 14.1 nM
AUAAGUACGUCAGAUACCAGACAGCCAGACUUACAUGAGGAUCACCCAUGUGGAUGGACGGUCCCUUGGCAGCUGGCCGCAAAAG [Isedgeor] | 216 nM
ACAUGAGGAUCACCCAUGUCAAGGCACGAUACCAGCUGAUCCGGUGGCCCUUGGCAGCGUCACGUUUGGUCCCGCGGAUGACACG [p'pmullin] | 106 nM
AAAAUAAAUAAAACGGGUAACAUGAAGGAUACCAGCCAGGAAACUGGCCCUUGGCAGCCUCUACAUGAGGAUCACCCAUGUCCCG [Mat - Same State Theophlline A - Mod of Eli - D14] | 454 nM
AUCGCACCUGGUGAUACCAGCGUUUGCUCGUGACAUGAGGAUCACCCAUGUGGCCAGUGAUGCCCUUGGCAGCAUGGUCGGUGCA [Same State - Theophylline B (Freestyle 26)] | 296 nM
ACCUCAUGUAGAAGGAGCGUCAGAAGCUACAGACAUGAGGAUCACCCAUGUUAGUUGAUCUGACAGGUAGGUCGCUACAGCAGGA [#23 Same State - Arginine B] | 31.8 nM
GGACUAACUGGAAGGAGCGACGCGCAGAAACUGCAAUUUCCUCCACACGAGGAUCACCCGUGUCAGGUAGGUCGCCAGUUAGUCG [ArgBX 29] | 18.6 nM
GGUGGCGUGACGGAUACCAGCCACCACCGCAAGGCCACAUGAGGAUCACCCAUGUUGGGUGGCCCUUGGCAGCUGUCGUGCGGCG [#1 Same State - Theophylline B Attempt #20 (HarryS)] | 341 nM
UUAUUUAUAAUGGAUACCAGUGCUGUGGCCCGGCAUCCUGACAUGAGGAUCACCCAUGUGUACCCUUGGCAGCUGUUAUGGGUUU [XTheo B #20] | 19.3 nM
GGGACAUGAGGAUCACCCAUGUACCGGUCCCGAGGACCGGUACGGCCGCCACUCGAUGACCUCAUAGUCUGCUGGAGCAGCAGAC [Usesedarin] | 330 nM
ACAUGAGGAUCACCCAUGUAUUACCGGGAAGGAGCGGCCGCAAGGCCAGGUAGGUCGCUCGGUGUCGUGCUGUAAAGCACGACAA [#1 Same State - Arginine A Attempt #29 (HarryS)] | 9.61 nM
GCUAGGUCUACGGCCGCCACUAGACGUGGGUAAGACAUGAGGAUCACCCAUGUACUACGGGCGAAUAGGACCGGGUAGACCUAGC [SSTB NP+V+V2 #14 Same Structure] | 39.1 nM
AGUGCUACGUGUAAUCAAAGAGAACCAGAUACCAGAUUAGCAUACAUCCCUUGGCAGCUGCAUACAUGAGGAUCACCCAUGUCAG [theeternabot_exclusion_MS2_Theo_A_31] | 31.8 nM
GGCACCGGGCGAAGGAGCGUGAAGACAUGAGGAUCACCCAUGUAGAGGCCCGGACAGGGUUCGCAGGUAGGUCGCGCGCGGUGCC [#1 Same State - Arginine B Attempt #8 (HarryS)] | 16.9 nM
UUAAUGGAGCUUUUAUUUACGAUUUCUGAUACCAGUGUUUCAUUUCACCCUUGGCAGCAGUGACAUGAGGAUCACCCAUGUAAUA [JR_Nu_SSTheophyA_Sub021] | 25.9 nM
CUAUGCAGGUCGGCCGCCACUACACACAUGAGGAUCACCCAUGUAGUUACUGGGUGAAGUGGCAGUAGGACCGGGACCUGCACAU [Brourdmod15] | 229 nM
